Experimental findings from publication PMC7509637 (Advanced Science, 2020) are described below.

One data set has as its system adult zebrafish. Put plainly: Behavioral pathology of adult zebrafish (swimming). In kind it is in vivo, zebrafish (AB, Danio rerio). The procedure:
Adult zebrafish (10 months) were employed for the study. Prior to microinjection, adult zebrafish were anesthetized by placing them in a beaker filled with ice‐chilled tricaine (0.01% in Holtfreter's buffer) for 20 s. The samples of Aβ alone and Aβ with FapCS or bacterial biofilm fragments were injected to the cerebroventricular space of adult fish with a 1 µL Hamilton glass syringe. The concentration of the Aβ peptide was 40 × 10^−6 M (in PBS, pH 7.4) while FapCS or biofilm fragments were included at a 10:1 ratio (Aβ:FapCS or biofilm fragments). The needle penetrated between left and right telencephalon for not more than 1 mm and injection volume was 1 µL. The syringe was washed with ethanol and PBS in between the injections. The injections were made under a stereomicroscope and fish were held in place with forceps. After microinjection, the fish was placed back in the water tank for recovery.
The behavioral pathology of the adult fish was observed after 4 d and 2 weeks of microinjection. The behavioral pathology of movement frequency and traveled distance was recorded with a zebrabox (Viewpoint) in a 1 L swimming tank. For cognitive function test, the tank was hypothetically divided into two parts of arena 1 and arena 2, and arena 2 was labeled by pasting a red paper at the bottom of the tank. The behavior of the untreated fish was recorded as positive control, in both arenas. Then fish from each sample were trained to avoid swimming in arena 2 by shocking with a 9 V battery electrodes, whenever the fish swim into arena 2. The fish were allowed to familiarize with the tank for 30 min and then trained for 20 min. After training, the swimming behavior of the fish was recorded in whole tank and then analyzed for arena 1 versus arena 2 with software EthnoVision X1.
The observations were made for 1 min with three fish per samples. The measurements were made three times in a day and then averaged together. […] Movement trajectories were also recorded with the instrument's camera.

Data set [1] addresses T1, Aβ (Homo sapiens, UniProt P05067).
T1 construct: purchased Anaspec Inc
Put plainly: Circular dichroism spectroscopy, secondary structure. As to conditions: 37 °C, CD; for β-sheet content: Contin/reference set 4, n = 3; for random coil content: n = 3. The protocol:
Solutions of 200 µL, at similar molar ratios as for ThT assay, were prepared and incubated at 37 °C. CD spectra for different samples at 0, 12 and 48 h were measured with a CD spectrophotometer (Jasco) from 190 to 240 nm (1 nm step size). The percentage secondary structure was calculated by the CD data via Dichroweb analysis with parameters of Contin/reference set 4.^[ ^95 ^]
Background: CD spectra are sensitive to the conformation of chiral molecules.

Data set [2] concerns the target T1, Aβ. Kind of data set: Static light scattering (SLS) of Aβ fibrillar growth. In kind it is biochemical. As to conditions: ratio as for ThT assay, Malvern Zetasizer Nano, n = 3. The protocol:
Increases in the size of Aβ in the presence and absence of FapCS or bLgS were monitored by SLS. Solution of Aβ with FapCS or bLgS, at a similar ratio as for the ThT assay, was prepared and incubated. SLS measurements were performed at different time intervals using a Malvern Zetasizer Nano. The parameters were fixed at 7 for attenuator and 4.20 mm for cell position. Quartz cells with low volume capacity (100 µL) were used. The light scattering intensities (kilo counts per sec) and the refractive indices of the samples, buffer alone and toluene were measured.

In a further data set the test system is Aβ monomers. Kind of data set: Isothermal titration calorimetry (ITC). In kind it is binding. The note with it: Aβ 200 × 10^−6 M into 20 × 10^−6 M seeds, 0.1% NH4OH, 25 °C. The protocol: ITC (Malvern MicroCal iTC200) was used to explore the interaction between Aβ monomers and oligomers (Aβo) with FapCS. Sample solutions were degassed at 25 °C while stirring (100 rpm). Aβ (200 × 10^−6 M, 40 µL) was filled into the syringe while FapCS or bLgS (20 × 10^−6 M, 200 µL) were filled in the cell (coin shaped). 0.1% NH4OH buffer solution was used for both solutions. Aβ was injected into the cell at an injection volume of 2 µL at the duration of 4 s and with a spacing of 180 s. First injection was 0.2 µL for 0.4 s duration and a total of 16 injections were programed. The heat exchange was recorded with a Microcal analysis (origin v7) software. The heat of dilution (Aβ against buffer) was subtracted from the interaction heat of samples. The acquired curves were fitted to a sequential binding model and thermodynamic parameters of binding energy (ΔH), free energy (ΔG), and entropic factor (TΔS) were calculated. Aβo for the ITC experiments was prepared by incubating Aβ aqueous solution (200 × 10^−6 M) at 4 °C for 48 h.^[ ^65 ^]
(In ITC the heat of successive injections is recorded.)

The test system of the next data set is Aβ amyloid fibrils. Put plainly: STED microscopy of FapCS with Aβ fibrils. As to conditions: FapCS labeled with Alexa 647, ThT-labeled Aβ fibrils, 12 h. The procedure: STED microscopy was employed to study the interaction of FapCS with Aβ. FapCS was labeled with Alexa 647 NHS ester via carbodiimide coupling reaction (1:1 molar ratio) in PBS (pH 8) for a duration of 5 h. The labeled fragments were purified via centrifugal filters ([…]). Labeled FapCS was incubated with Aβ at the same molar ratio as for the ThT assay. After 12 h of incubation, the FapCS‐seeded Aβ fibrils were incubated with ThT dye (100 × 10^−6 M) for 30 min to label the Aβ backbone and then purified via centrifugal filters ([…]). A drop of 20 µL of the sample was placed on a poly‐L‐lysine coated coverslip, flipped on a glass slide and then imaged under STED microscope. Alexa and ThT fluorescence were imaged under the excitations of 647 and 488 nm and emissions of 665 and 525 nm, respectively.

Where [3] appears, read: 2 weeks postinjection, Aβ 1 µL, 40 × 10^−6 M, n = 3 per group, three groups.

“And” between values parts separate entries of the source, which are not always exact repeats. Equal entries are not always repeated. “Also recorded” adds a separate entry of the source.

For the molecule amyloid beta [Aβ], in the data set with adult zebrafish (setting [3]), the distance traveled was 57 ± 6.9 cm per min and the movement frequency is 6 ± 2 per min. In addition, the “swimming behavior (in words)” value in the data set with adult zebrafish (4 d postinjection) is listed as “did not produce significant difference in the swimming behavior compared to the buffer control”. Further, in the data set with Aβ [1] (0 h), the β-sheet content was 28% and 28 ± 9%; the random coil content amounted to 34 ± 6%. In the data set with Aβ [1] (12 h), this molecule came in with a random coil content of 28 ± 1.5%. In addition, in the data set with Aβ [1] (48 h), the β-sheet content was 54% and 54 ± 4.5%.

B1: FapCS: FapC seeds obtained by sonication of mature FapC fibrils (P. aeruginosa) (protein)
chain: GNEGGWHPPKPNPQSNNKGGATALVVDTQQNYNNKVSNFGTLNNASVSGSIKDASGNVGVNVAAGDNNQQANAAALASADASFVFGTATASTSVLQSGYGNTLNNYSNPNTASLSNSANNVSGNLGVNVAAGNFNQQKNDLAAAVSNGQYSTAGSAASQTSTGNTTVNSANYAYGGTYVSLKLNADGSYKGTSDQIGDVYLDTWEGQTHPGGSNTGHIDVDSQAQGAKDLNHDGGAFAFKEKGDVDLKGTVSGFIPAIVGFKTPVTNNASLSNSLQNVSGNVGVNIAAGGGNQQSNSLSIAAGCSSCPAGGESLGF
Turning to B1, in the data set with Aβ [2], the “Aβ fibrillar growth by SLS” value is “significantly more rapid Aβ fibrillar growth; also recorded: rapid growth in the size of Aβ fibrils”. The “binding to Aβ by ITC (in words)” value in the data set on Aβ monomers was “weak but favorable interaction; also recorded: favorable binding with Aβ”. For the same molecule, in the data set on Aβ amyloid fibrils, the “interaction with Aβ fibrils by STED” value was “adsorption of FapCS (labeled with Alexa 647) onto Aβ amyloid fibrils; also recorded: intercalation of FapCS inside the Aβ fibrils; also recorded: adsorbed onto or integrated into Aβ fibrils”.
